Experimental data published in patent publication US20060233798A1.

Legend:
[1] = target: HIV-1JR-FL envelope glycoproteins gp120/gp41 on HeLa-EnvJR-FL+ cells (HIV-1 JR-FL); assay: cell-based or functional assay
[2] = target: CCR5 chemokine receptor on the cell surface (UniProt P51681); assay: flow cytometry on mitogen-stimulated PBMC
[3] = target: CCR5 chemokine receptor on the cell surface (UniProt P51681)
[4] = target: CCR5 chemokine receptor on the cell surface (UniProt P51681); assay: cell-based or functional assay
[5] = target: CCR5 chemokine receptor on the cell surface (UniProt P51681); assay: flow cytometry on L1.2-CCR5+ cells, PE anti-mouse IgG

Chain of UniProt P51681 (P51681 whole entry): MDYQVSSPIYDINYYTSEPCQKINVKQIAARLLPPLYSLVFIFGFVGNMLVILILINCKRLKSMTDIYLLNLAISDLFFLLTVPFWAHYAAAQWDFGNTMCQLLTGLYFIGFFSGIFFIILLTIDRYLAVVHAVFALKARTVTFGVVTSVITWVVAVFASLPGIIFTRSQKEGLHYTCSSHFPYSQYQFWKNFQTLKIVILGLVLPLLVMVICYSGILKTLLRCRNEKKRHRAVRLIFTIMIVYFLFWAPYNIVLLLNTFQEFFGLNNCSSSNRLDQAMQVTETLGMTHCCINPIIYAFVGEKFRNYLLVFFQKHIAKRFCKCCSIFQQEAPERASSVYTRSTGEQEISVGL

**Q.** For “CD4-IgG2 (from UniProt P01730 26-204; P01730 26-203) (Fc fusion)”, which K (equal to the IC50) of the median effect fit, inhibition of env-mediated membrane fusion (RET assay, HeLa-EnvJR-FL+ and PM1 cells) [1] is on record?
**A.** Its K (equal to the IC50) of the median effect fit, inhibition of env-mediated membrane fusion (RET assay, HeLa-EnvJR-FL+ and PM1 cells) is 0.31 µg/mL.

**Q.** How did the K (equal to the IC50) of the median effect fit, inhibition of env-mediated membrane fusion (RET assay, HeLa-EnvJR-FL+ and PM1 cells) [1] turn out when T-20 peptide was run?
**A.** The K (equal to the IC50) of the median effect fit, inhibition of env-mediated membrane fusion (RET assay, HeLa-EnvJR-FL+ and PM1 cells) was 0.017 µg/mL.

**Q.** How did the % of PBMC stained [2] turn out when anti-CCR5 mAb 2D7 (antibody) was run?
**A.** The % of PBMC stained was > 20%.

**Q.** What about the IC50 [3] of the same substance?
**A.** Its IC50 is 1.38 µg/mL.

**Q.** And the IC50, inhibition of JR-FL entry (luciferase reporter virus, U87MG-CD4+CCR5+ cells) [4]?
**A.** Its IC50, inhibition of JR-FL entry (luciferase reporter virus, U87MG-CD4+CCR5+ cells) is 0.026 µg/mL.

**Q.** And the IC50, inhibition of cell-cell fusion (RET assay, PM1 and HeLa-EnvJR-FL+ cells) [4]?
**A.** Its IC50, inhibition of cell-cell fusion (RET assay, PM1 and HeLa-EnvJR-FL+ cells) is 1.6 µg/mL.

**Q.** What about the K (equal to the IC50) of the median effect fit, inhibition of cell-cell fusion (RET assay) [4] of the same substance?
**A.** The K (equal to the IC50) of the median effect fit, inhibition of cell-cell fusion (RET assay) was 0.36 µg/mL.

**Q.** What about the % of L1.2-CCR5+ cells stained [5] of the same substance?
**A.** The % of L1.2-CCR5+ cells stained was > 90%.

**Q.** For anti-CCR5 monoclonal antibody PA14, which % of PBMC stained [2] is on record?
**A.** Its % of PBMC stained is > 20%.

**Q.** What about the fold difference of m.f.i. against PA9 [2] of the same substance?
**A.** The fold difference of m.f.i. against PA9 was 7 fold.

**Q.** And the IC50 [3]?
**A.** The IC50 was 1.58 µg/mL.

**Q.** And the % inhibition of entry attained [4]?
**A.** Its % inhibition of entry attained is > 90%.

**Q.** And the % inhibition of fusion attained [4]?
**A.** The % inhibition of fusion attained was > 90%.

**Q.** What about the IC50, inhibition of JR-FL entry (luciferase reporter virus, U87MG-CD4+CCR5+ cells) [4] of the same substance?
**A.** Its IC50, inhibition of JR-FL entry (luciferase reporter virus, U87MG-CD4+CCR5+ cells) is 0.024 µg/mL.

**Q.** What about the IC50, inhibition of cell-cell fusion (RET assay, PM1 and HeLa-EnvJR-FL+ cells) [4] of the same substance?
**A.** Its IC50, inhibition of cell-cell fusion (RET assay, PM1 and HeLa-EnvJR-FL+ cells) is 1.7 µg/mL.

**Q.** And the IC50 for calcium influx inhibition (RANTES-induced, L1.2-CCR5+ cells) [4]?
**A.** Its IC50 for calcium influx inhibition (RANTES-induced, L1.2-CCR5+ cells) is 50 µg/mL.

**Q.** And the IC50 for calcium influx inhibition, ratio to the IC50 for 2D7 [4]?
**A.** The IC50 for calcium influx inhibition, ratio to the IC50 for 2D7 was 8 fold.

**Q.** What about the % of L1.2-CCR5+ cells stained [5] of the same substance?
**A.** Its % of L1.2-CCR5+ cells stained is > 90%.
